# Source: patent US20080318246A1 (ALBERT EINSTEIN COLLEGE OF MEDICINE OF YESHIVA UNIVERSITY, published 2008)
# Square brackets hold non-standard residues; d marks the D form. Carminic acid = quencher bound covalently; Ala(Pyr) = not defined here; Dap = NC[C@H](N)C(=O)O
# T1: 14-3-3τ (UniProt P27348 1-245)
# T1 sequence (looked up): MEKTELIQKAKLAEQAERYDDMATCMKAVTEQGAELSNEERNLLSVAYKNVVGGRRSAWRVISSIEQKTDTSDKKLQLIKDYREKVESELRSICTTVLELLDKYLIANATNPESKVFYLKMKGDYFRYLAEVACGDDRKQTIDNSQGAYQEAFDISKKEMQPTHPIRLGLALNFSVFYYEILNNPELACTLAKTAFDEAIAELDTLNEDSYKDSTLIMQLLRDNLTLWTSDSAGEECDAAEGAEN
# Biological target: T1, 14-3-3τ
# Experiment: cell-based or functional assay
binder,measurement,value
"Ac-G[Ala(Pyr)]TGRR[Dap](Carminic acid)SLPA-NH2 (reading uncertain; also: Ser phosphorylated by PKA in the assay) [P14, AcGAla(Pyr)TGRRDap(Carminic acid)SLPA-amide, serine-phosphorylated by PKA in the assay]",fold increase in fluorescence upon phosphorylation by PKA,2.2 fold
